Key:
Grb2 SH2 = Grb2 SH2 (UniProt P62993); assay: SH2 binding enrichment of the phosphorylated peptide, bacterial display (enrichment ratio); higher = better substrate or ligand; peptides without Tyr show the background
c-Src SH2 = assay: as above
SHP2-C SH2 = assay: as above
FGFR3 = FGFR3 (UniProt P22607); assay: phosphorylation enrichment, bacterial display (enrichment ratio); higher = better substrate or ligand; peptides without Tyr show the background
c-Abl (mouse) = assay: as above
Fes = Fes (UniProt P07332); assay: as above
Chain of Fes (P07332 whole entry, looked up): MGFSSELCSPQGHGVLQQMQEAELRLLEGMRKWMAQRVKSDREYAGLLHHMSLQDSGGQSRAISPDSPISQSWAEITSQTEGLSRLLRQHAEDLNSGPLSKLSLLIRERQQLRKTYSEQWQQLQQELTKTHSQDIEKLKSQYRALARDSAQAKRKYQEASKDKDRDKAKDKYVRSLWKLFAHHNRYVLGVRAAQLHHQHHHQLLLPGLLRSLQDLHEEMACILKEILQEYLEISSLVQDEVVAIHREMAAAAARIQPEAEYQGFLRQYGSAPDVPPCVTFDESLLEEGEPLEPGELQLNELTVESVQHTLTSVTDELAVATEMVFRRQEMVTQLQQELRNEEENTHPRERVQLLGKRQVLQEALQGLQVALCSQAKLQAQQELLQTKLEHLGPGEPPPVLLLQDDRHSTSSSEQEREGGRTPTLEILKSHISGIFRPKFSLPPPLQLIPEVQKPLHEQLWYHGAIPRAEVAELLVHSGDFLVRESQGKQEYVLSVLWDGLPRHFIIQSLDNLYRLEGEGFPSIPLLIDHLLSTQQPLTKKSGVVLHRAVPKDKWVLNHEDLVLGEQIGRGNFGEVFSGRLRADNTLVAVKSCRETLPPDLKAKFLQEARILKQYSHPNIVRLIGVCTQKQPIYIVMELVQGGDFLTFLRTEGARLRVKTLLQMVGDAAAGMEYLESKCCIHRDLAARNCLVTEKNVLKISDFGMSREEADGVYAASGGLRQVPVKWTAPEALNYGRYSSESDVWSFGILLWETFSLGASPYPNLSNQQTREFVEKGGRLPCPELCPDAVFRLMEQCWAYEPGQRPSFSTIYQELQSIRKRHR

Fyn = Fyn (UniProt P06241); assay: as above
Hck = Hck (UniProt P08631); assay: as above
Chain of Hck (P08631 whole entry, looked up): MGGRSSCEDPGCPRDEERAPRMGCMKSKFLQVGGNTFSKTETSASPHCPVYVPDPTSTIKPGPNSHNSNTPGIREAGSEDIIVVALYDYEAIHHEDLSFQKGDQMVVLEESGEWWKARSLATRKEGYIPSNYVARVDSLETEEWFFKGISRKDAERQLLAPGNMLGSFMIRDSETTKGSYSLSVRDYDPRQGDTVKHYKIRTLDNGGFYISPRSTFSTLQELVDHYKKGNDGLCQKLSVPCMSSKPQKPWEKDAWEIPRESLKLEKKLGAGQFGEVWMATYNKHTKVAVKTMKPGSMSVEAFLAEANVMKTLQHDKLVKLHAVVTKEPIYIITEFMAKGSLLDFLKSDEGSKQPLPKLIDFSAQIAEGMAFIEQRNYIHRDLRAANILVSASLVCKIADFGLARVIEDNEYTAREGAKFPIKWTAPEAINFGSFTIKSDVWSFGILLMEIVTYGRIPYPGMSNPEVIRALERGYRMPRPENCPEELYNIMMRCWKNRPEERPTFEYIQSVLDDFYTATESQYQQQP

Fer (mouse) = assay: as above
EPHB2 = EPHB2 (UniProt P29323); assay: as above
Chain of EPHB2 (P29323 whole entry, looked up): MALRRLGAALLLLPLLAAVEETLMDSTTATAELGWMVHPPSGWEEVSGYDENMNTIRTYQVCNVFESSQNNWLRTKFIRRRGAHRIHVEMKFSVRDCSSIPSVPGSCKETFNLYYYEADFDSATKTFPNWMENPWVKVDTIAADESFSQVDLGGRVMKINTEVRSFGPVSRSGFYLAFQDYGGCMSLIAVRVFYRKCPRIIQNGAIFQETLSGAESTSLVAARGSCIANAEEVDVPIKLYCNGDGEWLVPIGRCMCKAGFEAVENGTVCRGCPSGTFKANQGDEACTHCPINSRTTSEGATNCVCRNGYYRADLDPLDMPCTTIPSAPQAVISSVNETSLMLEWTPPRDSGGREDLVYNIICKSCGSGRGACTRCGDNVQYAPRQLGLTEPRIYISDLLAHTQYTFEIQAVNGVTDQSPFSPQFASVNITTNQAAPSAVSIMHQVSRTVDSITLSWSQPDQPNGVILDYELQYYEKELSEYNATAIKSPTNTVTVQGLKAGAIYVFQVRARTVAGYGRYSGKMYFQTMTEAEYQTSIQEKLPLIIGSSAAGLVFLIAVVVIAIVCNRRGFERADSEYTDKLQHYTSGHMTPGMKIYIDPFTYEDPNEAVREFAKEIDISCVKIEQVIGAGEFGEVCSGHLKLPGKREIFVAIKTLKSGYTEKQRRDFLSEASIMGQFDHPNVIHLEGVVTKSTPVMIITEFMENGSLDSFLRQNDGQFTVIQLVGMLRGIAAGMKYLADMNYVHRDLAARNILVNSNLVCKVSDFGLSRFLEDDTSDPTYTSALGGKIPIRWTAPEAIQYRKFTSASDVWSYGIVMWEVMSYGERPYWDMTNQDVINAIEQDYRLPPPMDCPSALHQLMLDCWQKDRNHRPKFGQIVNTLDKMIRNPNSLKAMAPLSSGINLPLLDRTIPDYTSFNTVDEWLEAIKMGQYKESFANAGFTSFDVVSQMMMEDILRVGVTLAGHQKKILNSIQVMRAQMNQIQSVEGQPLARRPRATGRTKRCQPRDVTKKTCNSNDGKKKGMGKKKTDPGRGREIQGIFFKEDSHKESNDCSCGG

c-Src = assay: as above
AncSZ = assay: as above
MERTK = MERTK (UniProt Q12866); assay: as above
FGFR1 = FGFR1 (UniProt P11362); assay: as above
Chain of FGFR1 (P11362 whole entry, looked up): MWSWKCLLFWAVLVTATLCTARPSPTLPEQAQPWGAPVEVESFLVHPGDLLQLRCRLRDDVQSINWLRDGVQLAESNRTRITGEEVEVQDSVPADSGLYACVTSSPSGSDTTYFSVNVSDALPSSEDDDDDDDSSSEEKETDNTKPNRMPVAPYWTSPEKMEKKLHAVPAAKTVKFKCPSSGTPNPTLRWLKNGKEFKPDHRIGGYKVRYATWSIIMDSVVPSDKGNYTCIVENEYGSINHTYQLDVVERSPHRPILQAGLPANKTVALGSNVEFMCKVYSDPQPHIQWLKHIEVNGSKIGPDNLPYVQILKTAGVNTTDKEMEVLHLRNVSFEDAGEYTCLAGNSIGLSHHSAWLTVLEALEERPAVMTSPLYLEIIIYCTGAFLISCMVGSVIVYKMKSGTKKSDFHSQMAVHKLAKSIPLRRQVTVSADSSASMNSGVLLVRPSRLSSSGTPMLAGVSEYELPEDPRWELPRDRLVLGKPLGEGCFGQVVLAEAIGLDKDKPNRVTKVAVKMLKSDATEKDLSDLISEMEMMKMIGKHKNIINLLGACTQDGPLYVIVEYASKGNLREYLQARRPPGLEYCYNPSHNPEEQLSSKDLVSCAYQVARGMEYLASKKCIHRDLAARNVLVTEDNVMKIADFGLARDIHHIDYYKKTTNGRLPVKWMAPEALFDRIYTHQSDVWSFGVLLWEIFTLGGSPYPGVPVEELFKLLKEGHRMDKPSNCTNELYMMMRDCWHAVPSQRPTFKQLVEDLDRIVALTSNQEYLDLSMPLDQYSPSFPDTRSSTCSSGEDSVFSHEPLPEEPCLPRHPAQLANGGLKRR

Jak2 = Jak2 (UniProt O60674); assay: as above
EPHB1 = EPHB1 (UniProt P54762); assay: as above
Chain of EPHB1 (P54762 whole entry, looked up, the tested form may be a part): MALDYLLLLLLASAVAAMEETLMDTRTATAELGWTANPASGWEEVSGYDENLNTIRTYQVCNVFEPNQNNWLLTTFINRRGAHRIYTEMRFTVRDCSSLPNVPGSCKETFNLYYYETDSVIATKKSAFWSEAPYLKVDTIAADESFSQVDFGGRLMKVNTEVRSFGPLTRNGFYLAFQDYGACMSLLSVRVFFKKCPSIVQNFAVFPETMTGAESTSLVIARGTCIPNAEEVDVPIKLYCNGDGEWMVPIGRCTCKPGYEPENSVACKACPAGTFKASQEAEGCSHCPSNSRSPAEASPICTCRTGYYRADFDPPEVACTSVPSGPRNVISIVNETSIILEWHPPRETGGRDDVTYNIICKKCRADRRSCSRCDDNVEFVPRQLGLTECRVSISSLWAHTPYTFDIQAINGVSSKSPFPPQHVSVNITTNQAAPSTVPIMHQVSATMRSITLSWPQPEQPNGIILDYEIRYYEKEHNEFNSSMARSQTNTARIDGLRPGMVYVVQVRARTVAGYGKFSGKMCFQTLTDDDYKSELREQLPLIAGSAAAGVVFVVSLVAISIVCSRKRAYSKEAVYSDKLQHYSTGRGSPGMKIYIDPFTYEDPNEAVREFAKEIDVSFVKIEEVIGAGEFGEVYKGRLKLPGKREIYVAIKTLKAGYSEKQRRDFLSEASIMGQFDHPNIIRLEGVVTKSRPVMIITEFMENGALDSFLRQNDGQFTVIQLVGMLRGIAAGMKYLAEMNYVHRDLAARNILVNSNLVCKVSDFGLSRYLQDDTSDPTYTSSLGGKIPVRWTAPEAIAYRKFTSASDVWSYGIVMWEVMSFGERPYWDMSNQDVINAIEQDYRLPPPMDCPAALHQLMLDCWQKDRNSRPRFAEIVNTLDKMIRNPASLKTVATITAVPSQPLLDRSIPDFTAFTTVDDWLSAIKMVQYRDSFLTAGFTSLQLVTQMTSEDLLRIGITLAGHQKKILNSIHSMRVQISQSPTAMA
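Wherever SH2 binding enrichment of the phosphorylated peptide, bacterial display is given: peptide library displayed on the E. coli surface as eCPX fusions, selected cells deep-sequenced, score is each peptide's frequency after selection divided by its frequency in the input.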
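Wherever phosphorylation enrichment, bacterial display is given: 11-residue human phosphosite peptides and single-mutation variants displayed on the E. coli surface, counted by deep sequencing, each peptide's frequency after selection divided by its frequency in the unselected input library; frequency after pTyr selection over input frequency; kinase dosed for 20-30% of maximal phosphorylation in three min.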

Chain of FGFR3 (P22607 whole entry, looked up): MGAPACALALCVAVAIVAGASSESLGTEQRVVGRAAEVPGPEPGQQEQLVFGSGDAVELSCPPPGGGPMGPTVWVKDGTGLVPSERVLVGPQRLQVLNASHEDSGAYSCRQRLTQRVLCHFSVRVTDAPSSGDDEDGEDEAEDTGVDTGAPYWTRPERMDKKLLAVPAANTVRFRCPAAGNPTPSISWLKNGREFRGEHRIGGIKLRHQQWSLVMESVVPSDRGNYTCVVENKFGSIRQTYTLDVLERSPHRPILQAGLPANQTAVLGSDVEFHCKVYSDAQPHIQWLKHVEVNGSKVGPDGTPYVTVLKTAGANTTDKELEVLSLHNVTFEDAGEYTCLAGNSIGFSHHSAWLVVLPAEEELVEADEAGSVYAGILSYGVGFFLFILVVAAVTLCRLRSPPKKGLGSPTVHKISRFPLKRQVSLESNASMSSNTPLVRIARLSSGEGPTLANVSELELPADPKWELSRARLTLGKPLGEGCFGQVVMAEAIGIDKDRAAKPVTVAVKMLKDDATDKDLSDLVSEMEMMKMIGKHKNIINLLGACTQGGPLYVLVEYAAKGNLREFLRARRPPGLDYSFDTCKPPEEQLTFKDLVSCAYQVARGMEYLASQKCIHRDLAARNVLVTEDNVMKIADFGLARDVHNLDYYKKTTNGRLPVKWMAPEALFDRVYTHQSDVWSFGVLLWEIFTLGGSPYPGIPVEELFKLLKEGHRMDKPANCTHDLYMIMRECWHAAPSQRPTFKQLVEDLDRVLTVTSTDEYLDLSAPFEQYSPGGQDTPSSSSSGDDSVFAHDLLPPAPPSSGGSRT

| Sequence | SH2 binding enrichment (Grb2 SH2) | SH2 binding enrichment (c-Src SH2) | SH2 binding enrichment (SHP2-C SH2) | phosphorylation enrichment (FGFR3) | phosphorylation enrichment (c-Abl (mouse)) | phosphorylation enrichment (Fes) | phosphorylation enrichment (Fyn) | phosphorylation enrichment (Hck) | phosphorylation enrichment (Fer (mouse)) | phosphorylation enrichment (EPHB2) | phosphorylation enrichment (c-Src) | phosphorylation enrichment (AncSZ) | phosphorylation enrichment (MERTK) | phosphorylation enrichment (FGFR1) | phosphorylation enrichment (Jak2) | phosphorylation enrichment (EPHB1) |
| --- | --- | --- | --- | --- | --- | --- | --- | --- | --- | --- | --- | --- | --- | --- | --- | --- |
| HAVYIYDICHV [TWNK_Y508_V507I] | 0.801 | 0.707 | 0.979 | 1.65 | 4.12 | 1.77 | 7.62 | 5.31 | 9.37 | 8.7 | 5.31 | 2.46 | 6.7 | 1.57 | 0.989 | 8.01 |
| VFLGAYDHFLP [SLC22A5_Y486_R488H_YF] | 0.833 | 1.46 | 1 | 0.811 | 1.06 | 0.955 | 3.08 | 2.73 | 4.81 | 3.32 | 3.29 | 1.36 | 6.29 | 0.611 | 0.726 | 1.8 |
| FKEVVYQAMEE [TACC3_Y684_E680K] | 0.774 | 0.918 | 0.994 | 0.884 | 1.11 | 1.05 | 2.37 | 1.66 | 0.829 | 0.814 | 2.88 | 1.55 | 1.62 | 0.771 | 1.04 | 1.06 |
| SEDSEYFKAFE [CASQ2_Y178_YF] | 0.868 | 0.544 | 0.709 | 0.882 | 0.974 | 1.41 | 0.572 | 0.582 | 0.471 | 0.653 | 0.651 | 1.46 | 0.557 | 0.608 | 1.34 | 0.714 |
| LEQGEYALRSH [HADHB_Y244_D242G] | 0.752 | 0.55 | 0.788 | 0.505 | 0.815 | 0.993 | 0.747 | 0.697 | 0.564 | 0.556 | 0.681 | 0.935 | 0.567 | 0.736 | 0.855 | 0.521 |
| AVLQPYIFVAT [CFTR_Y1014] | 0.65 | 0.329 | 0.545 | 1.41 | 0.978 | 1.69 | 0.606 | 0.586 | 0.674 | 0.804 | 0.701 | 1.56 | 0.55 | 1.2 | 1.84 | 0.84 |
| SPLTDYSPQLQ [OTC_Y345_L341P] | 0.878 | 0.484 | 0.712 | 0.489 | 0.661 | 0.67 | 0.403 | 0.417 | 0.421 | 0.517 | 0.496 | 0.749 | 0.479 | 0.522 | 0.691 | 0.414 |
| IYHLSYLHNCE [PDE6B_Y227] | 0.959 | 0.792 | 1 | 1.74 | 3.41 | 1.54 | 2.63 | 1.75 | 1.28 | 0.764 | 2.56 | 1.46 | 3.92 | 1.95 | 1.26 | 0.778 |
| TDVSLYPSGGT [TENM4_Y399] | 0.577 | 0.405 | 0.8 | 0.428 | 0.585 | 0.552 | 0.353 | 0.409 | 0.535 | 0.512 | 0.269 | 0.676 | 0.435 | 0.355 | 0.578 | 0.331 |
| GRTPLYMDRQG [AGXT_Y194_G190R] | 0.891 | 0.542 | 1.12 | 0.415 | 0.473 | 0.498 | 0.495 | 0.702 | 0.344 | 0.443 | 0.528 | 0.575 | 0.432 | 0.396 | 0.472 | 0.452 |
| GSSSSYGQHGS [HRNR_Y517] | 0.868 | 0.375 | 1.43 | 0.293 | 0.322 | 0.472 | 0.376 | 0.339 | 0.316 | 0.343 | 0.256 | 0.376 | 0.309 | 0.396 | 0.352 | 0.315 |
| CTTVHYNFMCN [TP53_Y234_I232V_YF] | 1.61 | 2.66 | 2.38 | 0.673 | 0.687 | 0.901 | 0.499 | 0.445 | 0.598 | 0.52 | 0.499 | 0.769 | 0.384 | 0.472 | 0.622 | 0.458 |
| KVASVYEAPGF [NT5C_Y65] | 0.948 | 0.645 | 0.906 | 0.583 | 9.41 | 0.903 | 7.05 | 9.28 | 6.87 | 5.62 | 5.05 | 0.973 | 2.59 | 0.481 | 0.609 | 3.77 |
| RHTRSYDFTEG [FGF7_Y56_M59T_YF] | 0.88 | 0.427 | 0.611 | 0.382 | 0.563 | 0.695 | 0.366 | 0.387 | 0.399 | 0.492 | 0.351 | 0.557 | 0.35 | 0.411 | 0.444 | 0.377 |
| DFLEKYFKFGC [NNMT_Y24_S29C_YF] | 0.84 | 0.674 | 0.763 | 0.73 | 0.768 | 1.38 | 0.435 | 0.417 | 0.554 | 0.545 | 0.549 | 1.11 | 0.507 | 0.497 | 0.993 | 0.55 |
| GVRLYYRVMES [RB1_Y454] | 0.871 | 0.973 | 0.829 | 0.711 | 0.731 | 1.26 | 0.438 | 0.437 | 0.538 | 0.574 | 0.333 | 1.03 | 0.419 | 0.535 | 1.02 | 0.587 |
| MCITRYERESQ [PRNP_Y218_Q217R] | 1.07 | 0.705 | 0.784 | 0.541 | 0.466 | 0.813 | 0.404 | 0.469 | 0.488 | 0.528 | 0.404 | 1.03 | 0.457 | 0.433 | 0.769 | 0.429 |

| Sequence | SH2 binding enrichment (Grb2 SH2) | SH2 binding enrichment (c-Src SH2) | SH2 binding enrichment (SHP2-C SH2) | phosphorylation enrichment (FGFR3) | phosphorylation enrichment (c-Abl (mouse)) | phosphorylation enrichment (Fes) | phosphorylation enrichment (Fyn) | phosphorylation enrichment (Hck) | phosphorylation enrichment (Fer (mouse)) | phosphorylation enrichment (EPHB2) | phosphorylation enrichment (c-Src) | phosphorylation enrichment (AncSZ) | phosphorylation enrichment (MERTK) | phosphorylation enrichment (FGFR1) | phosphorylation enrichment (Jak2) | phosphorylation enrichment (EPHB1) |
| --- | --- | --- | --- | --- | --- | --- | --- | --- | --- | --- | --- | --- | --- | --- | --- | --- |
| ADRNHYRRFPR [YBX1_Y145_YF] | 0.601 | 0.488 | 0.55 | 0.508 | 0.871 | 0.71 | 0.519 | 0.556 | 0.603 | 0.54 | 0.689 | 0.8 | 0.552 | 0.539 | 0.654 | 0.452 |
| EEGNPYYSGAR [MCCC2_Y520_S523G] | 0.9 | 0.714 | 0.538 | 0.552 | 0.597 | 0.917 | 0.959 | 1.01 | 0.425 | 0.551 | 1.83 | 0.898 | 0.449 | 0.542 | 0.719 | 0.409 |
| EEGENYQKGER [CHGB_Y173] | 0.816 | 0.436 | 0.602 | 0.731 | 0.797 | 1.15 | 0.518 | 0.467 | 0.518 | 0.571 | 0.463 | 0.921 | 0.425 | 0.509 | 0.963 | 0.53 |
| GGQSVYHVHLH [HINT1_Y109] | 1.19 | 0.897 | 0.904 | 0.532 | 0.581 | 0.77 | 0.865 | 0.686 | 0.455 | 0.487 | 1.01 | 0.619 | 0.434 | 0.495 | 0.629 | 0.476 |
| GHLFAYDWISI [BEST1_Y227_YF] | 1.36 | 1.09 | 1.16 | 1.74 | 0.526 | 1.48 | 0.894 | 1.4 | 15.1 | 0.823 | 0.915 | 1.25 | 6.92 | 2.76 | 0.707 | 0.938 |
| PPPPAYDDVAQ [TNK2_Y635] | 0.757 | 4.13 | 0.706 | 0.591 | 0.806 | 0.993 | 0.45 | 0.439 | 0.547 | 0.669 | 0.622 | 1.16 | 0.676 | 0.467 | 1.03 | 0.579 |
| IMAFFYMCDRA [CASD1_Y382_YF] | 0.819 | 0.641 | 0.825 | 1.12 | 1.09 | 1.63 | 0.57 | 0.545 | 0.677 | 0.648 | 0.57 | 1.48 | 0.544 | 0.652 | 1.64 | 0.938 |
| CERFSYYGMKA [SLC15A2_Y60] | 0.843 | 1.08 | 0.799 | 2.88 | 0.737 | 1.04 | 0.689 | 1.16 | 0.558 | 0.611 | 1.1 | 1.59 | 0.665 | 3.72 | 3.12 | 0.843 |
| ESLRRYLENGK [HLA-B_Y195_W191S] | 0.813 | 0.436 | 0.473 | 0.45 | 0.548 | 0.629 | 0.384 | 0.461 | 0.454 | 0.362 | 0.34 | 0.629 | 0.392 | 0.397 | 0.519 | 0.431 |
| MGSYNYLGFAW [SPTLC2_Y178_R183W] | 0.682 | 0.477 | 0.845 | 2.24 | 0.737 | 0.937 | 0.708 | 1.4 | 0.617 | 1.88 | 1.04 | 1.11 | 3.65 | 2.96 | 3.68 | 3.69 |
| GFVEDYRPPFF [ACVRL1_Y421_I417F_YF] | 0.784 | 0.398 | 0.675 | 0.6 | 0.868 | 0.987 | 0.442 | 0.525 | 0.411 | 0.444 | 0.501 | 0.944 | 0.428 | 0.537 | 0.879 | 0.504 |
| RCLKDYGEFEV [GINS1_Y156] | 0.979 | 0.685 | 0.888 | 0.82 | 1.12 | 1.13 | 0.677 | 0.635 | 1.16 | 0.626 | 1.19 | 1.1 | 0.524 | 0.399 | 1.45 | 0.5 |
| EAKENYGKTLK [CHL1_Y291_T287A] | 0.754 | 0.432 | 0.503 | 0.441 | 0.495 | 0.732 | 0.338 | 0.328 | 0.305 | 0.314 | 0.424 | 0.655 | 0.327 | 0.456 | 0.52 | 0.348 |
| DSFWSYCNAVA [SLC20A2_Y436_S434W_YF] | 1.05 | 0.583 | 0.637 | 0.805 | 0.745 | 1.31 | 0.527 | 0.569 | 0.57 | 0.67 | 0.443 | 1.45 | 0.421 | 0.65 | 1.19 | 0.76 |
| FEDALYTVLHR [UNC13D_Y61_YF] | 0.85 | 0.521 | 0.812 | 2.38 | 5.92 | 1.79 | 9.12 | 9.35 | 11.4 | 13.8 | 7.03 | 2.96 | 9.68 | 2.49 | 1.4 | 16 |
| CTTIHYNFKCN [TP53_Y234_M237K_YF] | 1.23 | 1.23 | 1.5 | 0.494 | 0.51 | 0.75 | 0.405 | 0.476 | 0.386 | 0.392 | 0.411 | 0.795 | 0.425 | 0.472 | 0.545 | 0.381 |

Reference: the supplement of paper PMC10065799, “High-throughput profiling of sequence recognition by tyrosine kinases and SH2 domains using bacterial peptide display” (eLife, 2023)
